Measured values reported in article PMC12102760 (Protein Science : A Publication of the Protein Society, 2025).

What was measured:
[1] = target: T1, EphA2 extracellular domain (ECD) (human, UniProt P29317); experiment: SPR; EphA2 ECD immobilised by amine coupling on GLC chip, Fabs from 100 nM in three-fold dilutions, PBS, 25°C, 1:1 Langmuir model; settings: both partners purified
T1 construct: EphA2, human, extracellular domain (LBD, CRD, FN1, FN2); The catalogue number is printed for the SEC and the selections; also called EphA2 ECD; EphA2-His; source: bought: R&D Systems (3035-A2)
T1 sequence (P29317 24-537): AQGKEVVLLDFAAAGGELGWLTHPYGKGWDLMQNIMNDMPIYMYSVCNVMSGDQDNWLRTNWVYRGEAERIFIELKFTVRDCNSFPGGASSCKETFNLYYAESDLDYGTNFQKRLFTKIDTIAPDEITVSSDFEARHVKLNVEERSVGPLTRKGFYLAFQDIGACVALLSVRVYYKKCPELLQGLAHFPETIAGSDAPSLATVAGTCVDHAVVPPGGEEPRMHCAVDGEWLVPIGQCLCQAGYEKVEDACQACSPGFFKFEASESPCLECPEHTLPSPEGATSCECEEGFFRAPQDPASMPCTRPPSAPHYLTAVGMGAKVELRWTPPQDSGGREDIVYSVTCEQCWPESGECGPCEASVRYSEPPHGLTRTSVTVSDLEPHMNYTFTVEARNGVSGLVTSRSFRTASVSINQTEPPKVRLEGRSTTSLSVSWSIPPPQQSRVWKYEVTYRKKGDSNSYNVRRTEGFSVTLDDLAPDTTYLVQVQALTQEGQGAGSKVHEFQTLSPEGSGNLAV

EphA2-Fc = target: T2, EphA2-Fc (Homo sapiens, UniProt P29317); experiment: BLI; IgG captured on anti-human biosensors, quenched with Fc; receptor ECD-Fc in solution, three-fold dilutions from 300 nM; PBS, 1% BSA, 0.05% Tween 20; 25°C; 1:1 binding model; settings: both partners purified
T2 construct: EphA2, human, extracellular domain; Eph ECDs used for the phage selections were from R&D; also called EphA2 ECD
T2 sequence (P29317 24-537): as above

EphA4-Fc = target: T3, EphA4-Fc (Homo sapiens, UniProt P54764); experiment: as above; settings: both partners purified
T3 construct: EphA4, human, extracellular domain
T3 sequence (P54764 20-547): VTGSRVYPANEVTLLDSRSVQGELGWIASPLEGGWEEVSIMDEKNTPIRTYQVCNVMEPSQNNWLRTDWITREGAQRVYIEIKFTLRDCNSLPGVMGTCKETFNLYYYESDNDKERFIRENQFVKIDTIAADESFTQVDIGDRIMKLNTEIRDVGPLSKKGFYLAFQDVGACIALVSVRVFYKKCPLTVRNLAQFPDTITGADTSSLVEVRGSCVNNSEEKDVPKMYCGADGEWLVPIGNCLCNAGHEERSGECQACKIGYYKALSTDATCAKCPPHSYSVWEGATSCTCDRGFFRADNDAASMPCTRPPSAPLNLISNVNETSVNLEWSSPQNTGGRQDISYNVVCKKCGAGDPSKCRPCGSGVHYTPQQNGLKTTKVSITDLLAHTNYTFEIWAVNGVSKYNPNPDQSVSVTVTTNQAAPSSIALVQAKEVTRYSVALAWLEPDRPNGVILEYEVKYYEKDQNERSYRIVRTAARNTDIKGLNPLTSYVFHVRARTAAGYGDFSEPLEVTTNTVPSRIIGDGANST

EphA8-Fc = target: T4, EphA8-Fc (Homo sapiens, UniProt P29322); experiment: as above; settings: both partners purified
T4 construct: EphA8, human, extracellular domain
T4 sequence (P29322 28-542): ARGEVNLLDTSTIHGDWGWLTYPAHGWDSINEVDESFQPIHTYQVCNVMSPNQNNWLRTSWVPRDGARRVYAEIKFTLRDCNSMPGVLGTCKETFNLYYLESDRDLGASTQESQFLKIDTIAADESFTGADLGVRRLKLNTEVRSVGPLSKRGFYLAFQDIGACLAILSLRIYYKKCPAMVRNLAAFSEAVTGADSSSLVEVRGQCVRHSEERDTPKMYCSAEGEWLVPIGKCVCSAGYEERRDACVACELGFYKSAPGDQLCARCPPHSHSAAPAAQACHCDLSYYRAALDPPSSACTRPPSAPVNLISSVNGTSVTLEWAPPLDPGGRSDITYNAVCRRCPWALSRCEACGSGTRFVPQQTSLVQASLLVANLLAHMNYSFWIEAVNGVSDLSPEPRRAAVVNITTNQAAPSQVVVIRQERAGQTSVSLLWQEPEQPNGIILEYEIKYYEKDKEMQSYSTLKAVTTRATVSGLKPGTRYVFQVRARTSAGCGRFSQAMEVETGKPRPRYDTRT

[2] = target: the molecule itself; experiment: crystal structure; Fab^S1CEL1 with EphA2 LBD-CRD, 4.6 Å; 16% PEG 8000, 100 mM CHES pH 9.0, 200 mM magnesium sulfate; one Fab and two LBD-CRD in the asymmetric unit

B1: Fab F1 (Fab, V domains shown)
VH: EVQLVESGGGLVQPGGSLRLSCAASGFDSGAYLRHWVRQAPGKGLEWVASIYPSYGYTSYADSVKGRFTISADTSKNTAYLQMNSLRAEDTAVYYCARSAASYYGYWHWYHFSPGMDYWGQGTLVTVSS
VL: DIQMTQSPSSLSASVGDRVTITCRASQSVSSAVAWYQQKPGKAPKLLIYSASDLYSGVPSRFSGSRSGTDFTLTISSLQPEDFATYYCQQYVSGGWLITFGQGTKVEIK
notes: Fab^S1F1 in PDB 8T7F (chains C and G, heavy and light chain); Optimised from the parental Fab F1′ (Enderle et al., 2021); The deposited chains carry framework substitutions that this Fab lacks; source: E. coli BL21, purified (Protein A)
[1]
  Kd: < 1 nM

B2: IgG L1 (antibody, V domains shown)
VH: EVQLVESGGGLVQPGGSLRLSCAASGFTISSSYIHWVRQAPGKGLEWVASISSYYGSTSYADSVKGRFTISADTSKNTAYLQMNSLRAEDTAVYYCARSHYSVWWGWHSVSYYAAFDYWGQGTLVTVSS
VL: DIQMTQSPSSLSASVGDRVTITCRASQSVSSAVAWYQQKPGKAPKLLIYSASSLYSGVPSRFSGSRSGTDFTLTISSLQPEDFATYYCQQGSAPFTFGQGTKVEIK
notes: full-length IgG constant region not specified; as the light chain of m12; Bivalent full-length IgG; also called L1 IgG; Ab L1; source: mammalian cells, purified; copies: 2 + 2
EphA2-Fc
  Kd: 0.27 nM
EphA4-Fc
  binding result: no binding (tested: 300 nM)
EphA8-Fc
  binding result: no binding (tested: 300 nM)

B3: Fab L1 (Fab, V domains shown)
VH: EVQLVESGGGLVQPGGSLRLSCAASGFTISSSYIHWVRQAPGKGLEWVASISSYYGSTSYADSVKGRFTISADTSKNTAYLQMNSLRAEDTAVYYCARSHYSVWWGWHSVSYYAAFDYWGQGTLVTVSS
VL: DIQMTQSPSSLSASVGDRVTITCRASQSVSSAVAWYQQKPGKAPKLLIYSASSLYSGVPSRFSGSRSGTDFTLTISSLQPEDFATYYCQQGSAPFTFGQGTKVEIK
notes: synthetic Fab from phage library F; The deposited chains carry crystallisation-enhancing framework substitutions that this Fab lacks; source: E. coli BL21, purified (Protein A)
[1]
  Kd: < 1 nM

B4: EphA2 LBD-CRD (residues 23-326) (domain or fragment, human, UniProt P29317 23-326, looked up)
chain: AAQGKEVVLLDFAAAGGELGWLTHPYGKGWDLMQNIMNDMPIYMYSVCNVMSGDQDNWLRTNWVYRGEAERIFIELKFTVRDCNSFPGGASSCKETFNLYYAESDLDYGTNFQKRLFTKIDTIAPDEITVSSDFEARHVKLNVEERSVGPLTRKGFYLAFQDIGACVALLSVRVYYKKCPELLQGLAHFPETIAGSDAPSLATVAGTCVDHAVVPPGGEEPRMHCAVDGEWLVPIGQCLCQAGYEKVEDACQACSPGFFKFEASESPCLECPEHTLPSPEGATSCECEEGFFRAPQDPASMPCT
notes: EphA2, human, LBD-CRD, residues 23-326; A thrombin cleavage site precedes the C-terminal hexahistidine tag; also called LBD-CRD1; LBD-CRD2; source: kifunensine culture, deglycosylated by endoH
[2]
  binding result: binds

B5: Fab C1 (Fab, V domains shown)
VH: EVQLVESGGGLVQPGGSLRLSCAASGFTIYYSSMHWVRQAPGKGLEWVASISSYYGYTYYADSVKGRFTISADTSKNTAYLQMNSLRAEDTAVYYCARYYAMDYWGQGTLVTVSS
VL: DIQMTQSPSSLSASVGDRVTITCRASQSVSSAVAWYQQKPGKAPKLLIYSASSLYSGVPSRFSGSRSGTDFTLTISSLQPEDFATYYCQQYYGYGGYPITFGQGTKVEIK
notes: as for B3
[1]
  Kd: < 1 nM
